Data as given in patent US20180245075.

Tests used:
[1] = biological target: T1, DpnI binding domain-Dam(R95A) (synRW) (Streptococcus pneumoniae / Escherichia coli) (UniProt P0AEE8); assay: cell_activity; details: N6-methyladenine at A of GATC; with inducible writer and DpnI-VP64; mCherry-Dam(R95A) gave no increase
T1 sequence: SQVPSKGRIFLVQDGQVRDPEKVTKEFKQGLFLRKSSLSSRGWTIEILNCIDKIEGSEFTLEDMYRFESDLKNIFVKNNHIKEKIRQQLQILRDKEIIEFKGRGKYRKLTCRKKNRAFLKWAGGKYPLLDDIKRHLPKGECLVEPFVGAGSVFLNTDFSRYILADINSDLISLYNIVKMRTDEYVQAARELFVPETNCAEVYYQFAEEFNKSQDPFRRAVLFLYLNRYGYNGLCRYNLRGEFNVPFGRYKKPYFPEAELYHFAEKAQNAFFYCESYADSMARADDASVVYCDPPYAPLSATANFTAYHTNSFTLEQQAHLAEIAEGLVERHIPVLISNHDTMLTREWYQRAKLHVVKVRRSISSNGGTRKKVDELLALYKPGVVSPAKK

[2] = biological target: T2, DpnI binding domain-VP64 (synR-VP64) (Streptococcus pneumoniae) (UniProt P0A459); assay: cell_activity; details: N6-methyladenine at A of GATC; integrated interspersed reporter with synI; >100-fold episomal with ZF-Dam(WT)
T2 sequence: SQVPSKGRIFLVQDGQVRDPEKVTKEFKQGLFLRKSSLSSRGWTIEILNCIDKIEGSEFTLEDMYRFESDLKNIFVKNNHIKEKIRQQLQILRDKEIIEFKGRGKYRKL

## GATC (double strand) [adenine-methylated GATC sites of reporter]
[1]
  activity (fold increase in GFP activation): 2
[2]
  activity (fold GFP activation): 30
